Experimental data taken from US20250145690A1 (US Dept. of Health and Human Services, published 2025).

How the values were obtained:
Assay in all cases: bead flow cytometry, AUC minus CD4
[1] = molecular target: T1, HCoV-NL63 spike protein (Sino Biological 40604-V08B) (HCoV-NL63, UniProt Q6Q1S2 19-1296)
T1 sequence: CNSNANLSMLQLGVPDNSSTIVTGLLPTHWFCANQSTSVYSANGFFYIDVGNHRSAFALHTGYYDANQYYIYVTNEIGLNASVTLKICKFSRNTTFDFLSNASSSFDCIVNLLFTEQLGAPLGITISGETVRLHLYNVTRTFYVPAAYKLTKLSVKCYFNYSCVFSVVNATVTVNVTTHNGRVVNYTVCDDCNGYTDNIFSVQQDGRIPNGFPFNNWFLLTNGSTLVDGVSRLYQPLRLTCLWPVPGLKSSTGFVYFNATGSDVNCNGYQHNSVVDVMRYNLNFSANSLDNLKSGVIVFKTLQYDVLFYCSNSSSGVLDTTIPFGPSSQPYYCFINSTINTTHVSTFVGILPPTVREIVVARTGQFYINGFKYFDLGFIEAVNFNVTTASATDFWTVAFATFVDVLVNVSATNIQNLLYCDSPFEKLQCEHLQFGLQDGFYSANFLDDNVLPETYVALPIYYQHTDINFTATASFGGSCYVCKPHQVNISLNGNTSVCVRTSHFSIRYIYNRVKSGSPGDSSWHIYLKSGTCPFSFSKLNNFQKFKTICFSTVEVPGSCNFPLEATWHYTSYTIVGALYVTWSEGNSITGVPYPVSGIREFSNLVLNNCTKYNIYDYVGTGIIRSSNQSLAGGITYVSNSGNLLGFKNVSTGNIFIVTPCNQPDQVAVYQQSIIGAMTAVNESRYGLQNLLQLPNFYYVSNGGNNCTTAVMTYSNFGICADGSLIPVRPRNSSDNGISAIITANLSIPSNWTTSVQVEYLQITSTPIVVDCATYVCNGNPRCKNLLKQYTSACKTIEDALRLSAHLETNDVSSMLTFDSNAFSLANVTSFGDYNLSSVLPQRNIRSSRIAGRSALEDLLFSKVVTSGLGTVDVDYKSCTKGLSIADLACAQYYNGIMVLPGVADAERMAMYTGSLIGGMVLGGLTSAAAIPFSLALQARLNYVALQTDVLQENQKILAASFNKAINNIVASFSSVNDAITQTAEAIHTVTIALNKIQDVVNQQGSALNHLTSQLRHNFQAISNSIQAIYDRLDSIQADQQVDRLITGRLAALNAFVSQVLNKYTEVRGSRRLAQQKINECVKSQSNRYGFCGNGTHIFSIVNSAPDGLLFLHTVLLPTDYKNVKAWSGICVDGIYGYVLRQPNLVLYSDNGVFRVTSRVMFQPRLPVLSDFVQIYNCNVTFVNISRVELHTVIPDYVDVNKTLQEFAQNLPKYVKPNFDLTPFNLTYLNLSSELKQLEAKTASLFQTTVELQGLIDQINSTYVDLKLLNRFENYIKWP

[2] = molecular target: T2, HCoV-229E spike protein (Sino Biological 40605-V08B) (HCoV-229E, UniProt P15423 16-1115)
T2 sequence: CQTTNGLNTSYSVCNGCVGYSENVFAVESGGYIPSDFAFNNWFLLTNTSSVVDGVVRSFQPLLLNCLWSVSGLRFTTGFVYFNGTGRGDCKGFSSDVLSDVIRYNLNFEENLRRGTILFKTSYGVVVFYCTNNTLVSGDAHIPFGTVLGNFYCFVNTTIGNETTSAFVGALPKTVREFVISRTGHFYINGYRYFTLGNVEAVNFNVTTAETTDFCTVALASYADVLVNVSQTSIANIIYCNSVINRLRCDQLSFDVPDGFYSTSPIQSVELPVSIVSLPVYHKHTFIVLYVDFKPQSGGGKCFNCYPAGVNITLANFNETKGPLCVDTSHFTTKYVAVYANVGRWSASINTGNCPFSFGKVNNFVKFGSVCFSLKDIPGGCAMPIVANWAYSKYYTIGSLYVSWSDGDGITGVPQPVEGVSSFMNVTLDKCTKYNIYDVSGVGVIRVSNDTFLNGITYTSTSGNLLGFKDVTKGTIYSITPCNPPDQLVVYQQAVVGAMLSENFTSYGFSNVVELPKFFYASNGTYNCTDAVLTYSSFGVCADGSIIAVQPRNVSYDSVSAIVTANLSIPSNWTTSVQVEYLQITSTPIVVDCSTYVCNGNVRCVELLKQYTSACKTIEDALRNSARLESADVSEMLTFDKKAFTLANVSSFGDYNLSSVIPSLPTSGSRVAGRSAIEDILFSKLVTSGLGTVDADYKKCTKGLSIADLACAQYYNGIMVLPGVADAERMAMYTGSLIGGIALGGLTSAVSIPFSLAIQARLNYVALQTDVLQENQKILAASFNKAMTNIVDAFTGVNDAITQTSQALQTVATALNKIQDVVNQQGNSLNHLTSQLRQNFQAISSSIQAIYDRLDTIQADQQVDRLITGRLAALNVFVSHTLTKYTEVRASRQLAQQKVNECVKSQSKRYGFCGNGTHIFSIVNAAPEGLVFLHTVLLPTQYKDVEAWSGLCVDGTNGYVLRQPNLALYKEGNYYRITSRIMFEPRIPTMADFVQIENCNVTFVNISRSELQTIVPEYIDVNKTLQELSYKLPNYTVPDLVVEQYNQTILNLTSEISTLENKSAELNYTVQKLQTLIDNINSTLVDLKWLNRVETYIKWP

[3] = molecular target: SARS-CoV-2 spike receptor binding domain (RBD), recombinant (SARS-CoV-2, UniProt P0DTC2 319-541)
[4] = molecular target: SARS-CoV-2 spike N-terminal domain (NTD), recombinant (SARS-CoV-2, UniProt P0DTC2 14-305)

Measured: binding result

B1: COV49-04 (antibody, V domains shown)
VH: EVQLLESGGGLVQPGGSLRLSCATSGFTFSSYAMTWVRQAPGKGLEWVSAISGGGATTYSTDSVKGRFTTSRDNSKNTLYLQMNNLRAEDTALYYCAKGAFYNILSSIIVEGDYWGQGTLVTVSS
VL: DVVMTQSPLSLSVTLGQPASISCRSSQSLVFSDGDTYLNWFQQRPGQSPRRLIYRVSNRDSGVPDRFSGSGSGTDFTLKISRVEAEDVGVYYCMQGTHWLSITFGQGTRLDIK
no binding (tested: 200 µg/mL): all assays above

B2: COV49-30 (antibody, V domains shown)
VH: EVQLLESGGGLVQPGGSLRVSCTVSGFTFSDYSMSWVRQAPGKGLDWVSAISGTGETAYYADFVKGRFTSSRDNSKNTVYLQMNSLRGEDTAVYYCVKGVFYNILSSIIVEGDYWGQGTLVTVSS
VL: GVVMTQSPLSLPVTLGQPASISCRSSQSLVFSDGNTYLNWFQQRPGQSPRRLIYKVSKRDSGVPDRFSGSGSGTDFTLTISRVEAEDVGVYYCMQGTHWLSITFGQGTRLEIK
no binding (tested: 200 µg/mL): all assays above

B3: COV49-05 (antibody, V domains shown)
VH: EVQLLESGGGLAQPGGSLRLSCVASGFSFNDYAMTWVRQAPGKGLEWVSAVSSGGQTTYSTDSVKGRFTISRDNSKNMLYLQMNSLRAEDTAVYYCVKGAFYNILSSIIVEGDYWGQGTLVTVSS
VL: GVVLTQSPLSLPVTLGQPASISCRSSQSLVFSDGNTYLNWFQQRPGQSPRRLIYQVSNRDPGVPDRFSGSGSGTDFTLKISRVEAEDVGVYYCMQGTHWLSITFGQGTRLEIK
no binding (tested: 200 µg/mL): all assays above

B4: COV49-23 (antibody, V domains shown)
VH: EVQLLESGGGLAQPGGSLRISCVASGFSFNDYAMAWVRRAPGKGLEWVSAVSGGGQTTYSTDSVKGRFTTSRDNSKNTLYLQMNGLRAEDTAVYYCVKGAFYNILSSIIVEGDYWGQGALVTVSS
VL: GVVLTQSPLSLPVTLGQPASISCRSSQSLVFSDGNTYLNWFQQRPGQSPRRLIYQVSNRDPGVPDRFSGSGSGTDFTLKISRVEAEDVGVYYCMQGTHWLSITFGQGTRLEIK
no binding (tested: 200 µg/mL): all assays above

B5: COV49-28 (antibody, V domains shown)
VH: GVQLLESGGGLAQPGGSLKLSCVASGFSFNDYAMTWVRRPPGKGLEWVSAVSSGGQTSYSTDSVKGRFTISRDNSKNTLYLQMSSLRAEDTAIYYCVKGAFYNILSSIIVEGDYWGQGTLVTVSS
VL: GVVLTQSPLSLPVTLGQPASISCRSSQSLVFSDGKTYLNWFQQRPGQSPRRLIYQVSNRDPGVPDRFSGSGSGTDFTLKISRVEAEDVGVYYCMQGTHWLSITFGQGTRLEIK
no binding (tested: 200 µg/mL): all assays above

B6: COV49-07 (antibody, V domains shown)
VH: EVQLLESGGGLVQPGGSLRVSCTVSGFTFSDYSMSWVRQAPGKGLEWVSAISGTGETAYYADFVKGRFTSSRDNSKNTLYLQMNTLRGEDTAVYYCVKGAFYNILSSIIVEGDYWGQGTLVTVSS
VL: GVVMTQSPLSLPVTLGQPASISCRSSQSLVFSDGNTYLNWFQQRPGQSPRRLIYKVSERDSGVPDRFSGSGSGTDFTLTISRVEAEDVGVYYCMQGTHWLSITFGQGTRLEIK
no binding (tested: 200 µg/mL): all assays above

B7: COV49-47 (antibody, V domains shown)
VH: EVQLLESGGGLAQPGGSLRLSCVASGFSFNDYAMAWVRQAPGKGLEWVSAVSGGGQTTYSTDSVKGRFTTSRDNSKNTLYLQMNGLRAEDAAVYYCVKGAFYNILSSIIVEGDNWGQGTLVTVSS
VL: GVVLTQSPLSLPVTLGQPASISCRSSQSLVFSDGNTYLNWFQQRPGQSPRRLIYQVSNRDPGVPDRFSGSGSGTDFTLKISRVEAEDVGVYYCMQGTHWLSITFGQGTRLEIK
no binding (tested: 200 µg/mL): all assays above

B8: COV49-33 (antibody, V domains shown)
VH: EVQLLESGGGLAQPGGSLRLSCVASGFSFDDYAMTWVRQPPGKGLEWVSAVSGGGQTTYSTDSVKGRFTTSRDNSKNTLYLQMNSLRGEDTAVYYCVKGAFYNILSSIIVEGDYWGQGTLVTVSS
VL: VVVLTQSPLSLPVTLGQPASVSCRSSQSLVFSDGNTYLNWFQQRPGQSPRRLIYQVSNRDPGVPDRFSGSGSGTDFTLKISRVEAEDVGVYYCMQGTHWLSITFGQGTRLEIK
no binding (tested: 200 µg/mL): all assays above

B9: COV49-06 (antibody, V domains shown)
VH: EVQLLESGGGLVRPGGSLRLSCAASGFTFTNYAMSWVRQAPGKGLEWVSAISGGDGRTSYYADSVKGRFTSSRDNSKNTLYLQMNSLRAEDTAVYYCAKGAFYNILSSIIVEGDYWGQGTLVTVSS
VL: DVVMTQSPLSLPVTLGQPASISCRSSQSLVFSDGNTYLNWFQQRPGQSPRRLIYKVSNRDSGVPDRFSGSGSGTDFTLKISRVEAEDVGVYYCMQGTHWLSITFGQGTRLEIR
no binding (tested: 200 µg/mL): all assays above
